Values of other authors, collected in patent US8623366B2, “Methods for treating visceral pain by administering antagonist antibodies directed against calcitonin gene-related peptide” (Labrys Biologics, Inc., priority 2009, dated 2014).

T1: human α-CGRP (Homo sapiens, UniProt P06881)
T1 sequence (P06881 83-119 limits assumed): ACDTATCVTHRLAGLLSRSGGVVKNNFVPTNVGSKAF

T2: α-rat CGRP (Rattus norvegicus, UniProt P01256)
T2 sequence (P01256 83-119 limits assumed): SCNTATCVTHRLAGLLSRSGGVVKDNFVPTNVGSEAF


Key:
[1] = molecular target: T1, human α-CGRP; conditions: Table 6 reproduced from WO2007/054809; cited from earlier work
[2] = molecular target: T2, α-rat CGRP; conditions: Table 6 reproduced from WO2007/054809; cited from earlier work

Molecule | Kd [1] [nM] | Kd [2] [nM]
M18: G1 variant: HC-FW3 L99V A100G [Clone M18] | 0.44 | 67.8
M2: G1 variant: HC-FW3 L99A A100R [Clone M2] | 3 | 58
M10: G1 variant: HC-FW3 L99S A100S [Clone M10] | 1.08 | 83.9
M8: G1 variant: HC-FW3 L99N A100G [Clone M8] | 0.58 | 41.4
M15: G1 variant: HC-FW3 L99T A100P [Clone M15] | 0.1 | 63.9
M46: G1 variant: L1 R28N; L2 G50A L56T; H2 E54K A57N S58E H61F; HC-FW3 L99T A100V (antibody, chains of the INN, looked up, variant L:R28N L:G50A L:L56T H:E54K H:A57N H:S58E H:H61F H:L99T H:A100V, V domains shown) VH: EVQLVESGGGLVQPGGSLRLSCAASGFTFSNYWISWVRQAPGKGLEWVAEIRSKSDNEATFYAEAVKGRFTISRDNAKNSLYLQMNSLRAEDTAVYYCTVYFDYGLAIQNYWGQGTLVTVSS VL: EIVLTQSPATLSLSPGERATLSCKASKNVTTYVSWYQQKPGQAPRLLIYAASNRYTGIPARFSGSGSGTDFTLTISSLEPEDFAVYYCSQSYNYPYTFGQGTKLEIK | 3.37 | 163
M51: G1 variant: L1 R28N; L2 L56I; H2 E54K A57G; HC-FW3 L99T A100V (antibody, chains of the INN, looked up, variant L:R28N L:L56I H:E54K H:A57G H:L99T H:A100V, V domains shown) VH: EVQLVESGGGLVQPGGSLRLSCAASGFTFSNYWISWVRQAPGKGLEWVAEIRSKSDGSATHYAEAVKGRFTISRDNAKNSLYLQMNSLRAEDTAVYYCTVYFDYGLAIQNYWGQGTLVTVSS VL: EIVLTQSPATLSLSPGERATLSCKASKNVTTYVSWYQQKPGQAPRLLIYGASNRYIGIPARFSGSGSGTDFTLTISSLEPEDFAVYYCSQSYNYPYTFGQGTKLEIK | 0.82 | 65.6
M49: G1 variant: L1 R28N; L2 G50A L56T; H2 E54K A57N S58Y H61F; HC-FW3 L99T A100V (antibody, chains of the INN, looked up, variant L:R28N L:G50A L:L56T H:E54K H:A57N H:S58Y H:H61F H:L99T H:A100V, V domains shown) VH: EVQLVESGGGLVQPGGSLRLSCAASGFTFSNYWISWVRQAPGKGLEWVAEIRSKSDNYATFYAEAVKGRFTISRDNAKNSLYLQMNSLRAEDTAVYYCTVYFDYGLAIQNYWGQGTLVTVSS VL: EIVLTQSPATLSLSPGERATLSCKASKNVTTYVSWYQQKPGQAPRLLIYAASNRYTGIPARFSGSGSGTDFTLTISSLEPEDFAVYYCSQSYNYPYTFGQGTKLEIK | 3.72 | 822
M71: G1 variant: L1 R28N T30G; L2 L56I; H2 E54K A57Y; HC-FW3 L99T A100V (antibody, chains of the INN, looked up, variant L:R28N L:T30G L:L56I H:E54K H:A57Y H:L99T H:A100V, V domains shown) VH: EVQLVESGGGLVQPGGSLRLSCAASGFTFSNYWISWVRQAPGKGLEWVAEIRSKSDYSATHYAEAVKGRFTISRDNAKNSLYLQMNSLRAEDTAVYYCTVYFDYGLAIQNYWGQGTLVTVSS VL: EIVLTQSPATLSLSPGERATLSCKASKNVGTYVSWYQQKPGQAPRLLIYGASNRYIGIPARFSGSGSGTDFTLTISSLEPEDFAVYYCSQSYNYPYTFGQGTKLEIK |  | 118
M65: G1 variant: L1 R28N T30G; L2 G50A L56I; H2 E54K A57C; HC-FW3 L99T A100V (antibody, chains of the INN, looked up, variant L:R28N L:T30G L:G50A L:L56I H:E54K H:A57C H:L99T H:A100V, V domains shown) VH: EVQLVESGGGLVQPGGSLRLSCAASGFTFSNYWISWVRQAPGKGLEWVAEIRSKSDCSATHYAEAVKGRFTISRDNAKNSLYLQMNSLRAEDTAVYYCTVYFDYGLAIQNYWGQGTLVTVSS VL: EIVLTQSPATLSLSPGERATLSCKASKNVGTYVSWYQQKPGQAPRLLIYAASNRYIGIPARFSGSGSGTDFTLTISSLEPEDFAVYYCSQSYNYPYTFGQGTKLEIK | 5.02 | 226
M62: G1 variant: L1 R28N T30G; L2 A51H L56T; H2 E54K A57N S58E; HC-FW3 L99T A100V (antibody, chains of the INN, looked up, variant L:R28N L:T30G L:A51H L:L56T H:E54K H:A57N H:S58E H:L99T H:A100V, V domains shown) VH: EVQLVESGGGLVQPGGSLRLSCAASGFTFSNYWISWVRQAPGKGLEWVAEIRSKSDNEATHYAEAVKGRFTISRDNAKNSLYLQMNSLRAEDTAVYYCTVYFDYGLAIQNYWGQGTLVTVSS VL: EIVLTQSPATLSLSPGERATLSCKASKNVGTYVSWYQQKPGQAPRLLIYGHSNRYTGIPARFSGSGSGTDFTLTISSLEPEDFAVYYCSQSYNYPYTFGQGTKLEIK | 5.86 | 242
M55: G1 variant: L1 R28N T30A; L2 L56S; H2 E54K A57N S58E E64D; HC-FW3 L99T A100V (antibody, chains of the INN, looked up, variant L:R28N L:T30A L:L56S H:E54K H:A57N H:S58E H:E64D H:L99T H:A100V, V domains shown) VH: EVQLVESGGGLVQPGGSLRLSCAASGFTFSNYWISWVRQAPGKGLEWVAEIRSKSDNEATHYADAVKGRFTISRDNAKNSLYLQMNSLRAEDTAVYYCTVYFDYGLAIQNYWGQGTLVTVSS VL: EIVLTQSPATLSLSPGERATLSCKASKNVATYVSWYQQKPGQAPRLLIYGASNRYSGIPARFSGSGSGTDFTLTISSLEPEDFAVYYCSQSYNYPYTFGQGTKLEIK | 2.99 | 325
M75: G1 variant: L1 R28N T30G; L2 L56S; H2 E54K A57V; HC-FW3 L99T A100V (antibody, chains of the INN, looked up, variant L:R28N L:T30G L:L56S H:E54K H:A57V H:L99T H:A100V, V domains shown) VH: EVQLVESGGGLVQPGGSLRLSCAASGFTFSNYWISWVRQAPGKGLEWVAEIRSKSDVSATHYAEAVKGRFTISRDNAKNSLYLQMNSLRAEDTAVYYCTVYFDYGLAIQNYWGQGTLVTVSS VL: EIVLTQSPATLSLSPGERATLSCKASKNVGTYVSWYQQKPGQAPRLLIYGASNRYSGIPARFSGSGSGTDFTLTISSLEPEDFAVYYCSQSYNYPYTFGQGTKLEIK | 7.25 | 1040
M67: G1 variant: L1 R28N T30G; L2 L56I; H2 E54K A57F; HC-FW3 L99T A100V (antibody, chains of the INN, looked up, variant L:R28N L:T30G L:L56I H:E54K H:A57F H:L99T H:A100V, V domains shown) VH: EVQLVESGGGLVQPGGSLRLSCAASGFTFSNYWISWVRQAPGKGLEWVAEIRSKSDFSATHYAEAVKGRFTISRDNAKNSLYLQMNSLRAEDTAVYYCTVYFDYGLAIQNYWGQGTLVTVSS VL: EIVLTQSPATLSLSPGERATLSCKASKNVGTYVSWYQQKPGQAPRLLIYGASNRYIGIPARFSGSGSGTDFTLTISSLEPEDFAVYYCSQSYNYPYTFGQGTKLEIK | 5.13 | 95
M77: G1 variant: L1 R28N T30S; L2 G50A L56T; H2 E54K A57D; HC-FW3 L99T A100V (antibody, chains of the INN, looked up, variant L:R28N L:T30S L:G50A L:L56T H:E54K H:A57D H:L99T H:A100V, V domains shown) VH: EVQLVESGGGLVQPGGSLRLSCAASGFTFSNYWISWVRQAPGKGLEWVAEIRSKSDDSATHYAEAVKGRFTISRDNAKNSLYLQMNSLRAEDTAVYYCTVYFDYGLAIQNYWGQGTLVTVSS VL: EIVLTQSPATLSLSPGERATLSCKASKNVSTYVSWYQQKPGQAPRLLIYAASNRYTGIPARFSGSGSGTDFTLTISSLEPEDFAVYYCSQSYNYPYTFGQGTKLEIK | 2.98 | 794
M69: G1 variant: L1 R28N T30G; L2 L56I; H2 E54K A57N S58E; HC-FW3 L99T A100V (antibody, chains of the INN, looked up, variant L:R28N L:T30G L:L56I H:E54K H:A57N H:S58E H:L99T H:A100V, V domains shown) VH: EVQLVESGGGLVQPGGSLRLSCAASGFTFSNYWISWVRQAPGKGLEWVAEIRSKSDNEATHYAEAVKGRFTISRDNAKNSLYLQMNSLRAEDTAVYYCTVYFDYGLAIQNYWGQGTLVTVSS VL: EIVLTQSPATLSLSPGERATLSCKASKNVGTYVSWYQQKPGQAPRLLIYGASNRYIGIPARFSGSGSGTDFTLTISSLEPEDFAVYYCSQSYNYPYTFGQGTKLEIK | 4.58 | 101
M74: G1 variant: L1 R28N T30G; L2 L56S; H2 E54K A57S; HC-FW3 L99T A100V (antibody, chains of the INN, looked up, variant L:R28N L:T30G L:L56S H:E54K H:A57S H:L99T H:A100V, V domains shown) VH: EVQLVESGGGLVQPGGSLRLSCAASGFTFSNYWISWVRQAPGKGLEWVAEIRSKSDSSATHYAEAVKGRFTISRDNAKNSLYLQMNSLRAEDTAVYYCTVYFDYGLAIQNYWGQGTLVTVSS VL: EIVLTQSPATLSLSPGERATLSCKASKNVGTYVSWYQQKPGQAPRLLIYGASNRYSGIPARFSGSGSGTDFTLTISSLEPEDFAVYYCSQSYNYPYTFGQGTKLEIK | 3.73 | 335
M47: G1 variant: L1 R28N; L2 G50A L56T; H2 E54K A57N S58G; HC-FW3 L99T A100V (antibody, chains of the INN, looked up, variant L:R28N L:G50A L:L56T H:E54K H:A57N H:S58G H:L99T H:A100V, V domains shown) VH: EVQLVESGGGLVQPGGSLRLSCAASGFTFSNYWISWVRQAPGKGLEWVAEIRSKSDNGATHYAEAVKGRFTISRDNAKNSLYLQMNSLRAEDTAVYYCTVYFDYGLAIQNYWGQGTLVTVSS VL: EIVLTQSPATLSLSPGERATLSCKASKNVTTYVSWYQQKPGQAPRLLIYAASNRYTGIPARFSGSGSGTDFTLTISSLEPEDFAVYYCSQSYNYPYTFGQGTKLEIK | 2.08 | 457
M83: G1 variant: L1 R28N T30V; L2 A51H L56T; H2 E54K A57N S58M H61F; HC-FW3 L99T A100V (antibody, chains of the INN, looked up, variant L:R28N L:T30V L:A51H L:L56T H:E54K H:A57N H:S58M H:H61F H:L99T H:A100V, V domains shown) VH: EVQLVESGGGLVQPGGSLRLSCAASGFTFSNYWISWVRQAPGKGLEWVAEIRSKSDNMATFYAEAVKGRFTISRDNAKNSLYLQMNSLRAEDTAVYYCTVYFDYGLAIQNYWGQGTLVTVSS VL: EIVLTQSPATLSLSPGERATLSCKASKNVVTYVSWYQQKPGQAPRLLIYGHSNRYTGIPARFSGSGSGTDFTLTISSLEPEDFAVYYCSQSYNYPYTFGQGTKLEIK | 5.83 | 
M73: G1 variant: L1 R28N T30G; L2 L56S; H2 E54K A57N S58Y E64D; HC-FW3 L99T A100V (antibody, chains of the INN, looked up, variant L:R28N L:T30G L:L56S H:E54K H:A57N H:S58Y H:E64D H:L99T H:A100V, V domains shown) VH: EVQLVESGGGLVQPGGSLRLSCAASGFTFSNYWISWVRQAPGKGLEWVAEIRSKSDNYATHYADAVKGRFTISRDNAKNSLYLQMNSLRAEDTAVYYCTVYFDYGLAIQNYWGQGTLVTVSS VL: EIVLTQSPATLSLSPGERATLSCKASKNVGTYVSWYQQKPGQAPRLLIYGASNRYSGIPARFSGSGSGTDFTLTISSLEPEDFAVYYCSQSYNYPYTFGQGTKLEIK | 1.59 | 167
